Test results: the DeepSol protein solubility set

assay: soluble on expression in E. coli; label from the status in PepcDB or PDB records

**Q.** For “MAQIVVIGAGLGGLPAAYELRHYLGKAHQVILISEFPQFTFVPGLVQVGLGHIPLDHMQLNVPMLAKRHGFKWVQGKVQKIDPLQKRIYTHETLNYDYLIIASGAELANDLVPGLGIYTHSICTPSHVLEARTAWETFCQQPGDLVVGAAPGTGCFGPAYEYVLLAEADLRRRGIRDQVKITYITPEPYIGHLGIANMAHSQTLTEALMNKRGIATLTNAQIVNISSDHIFLADGQSFGFAYSMILPAFRGAKFVKASGLGNERGFLPVLPTMRHRDYPEIYGVGVSVHLGQINDTQVSIGTPKSGQMTEAMAMVAAHNIAVELGSIAKPLQVPTLEALCFAEYGDTGIAYIAAPVLPDRLTGKRRYSYAIKGIWVNWAKAAFEKYFLAKMRLGVGLPWFEKLGLRLLFGLSMSRPAMAEDIVQPVNVLEHHHHHH”, which “soluble on expression in E. coli” value is on record?
**A.** soluble

**Q.** Which “soluble on expression in E. coli” value does the source give for “MLNMPAEFEQFHWMVDMVQNVDMGLVVIDRDYNVQVWNGFMTHHSGLQSHEAIGRSIFDIFPEIPPEWFKLKTKPVYDLGCRSFITWRQRPYLFRCRNVRPVTQQAEFMYQNVTLNPMRTPTGKINSLFLSIQDATAEALMSQ” here?
**A.** not soluble

**Q.** With “MPRPALRSRSLRRVYVKLPSGKTVIHYERKRNDIAICAICKKPLHGVKTNFLHKYSKSEKRPERPFGGYLCSSCLTQLIKATVRQQLQ” as the sequence, how does the “soluble on expression in E. coli” value read?
**A.** soluble

**Q.** For “MAHHHHHHMGCSASKDTTNSKDGAASKGGKDGKTTADRKVAWERIRCAIPRDKDAESKSRRIELFKRFDTNGTGKLSFREVLDGCYSILKLDEFTTHLPGIVQRAFDKAKDLGNKVKGVGEEDLVEFLEFRLMLCYIYDIFELTVMFDTMDKDGSLLIELQEFKEALPKLKEWGVDITDATTVFNEIDTNGSGVVTFDEFSCWAVTKKLQVCGDPDGEGAAKTTADRKVAWERIRCAIPRDKDAESKSRRIELFKQFDTNGTGKLGFREVLDGCYSVLKLDEFTTHLPDIVQRAFDKAKDLGNRVKGVGEEDLVEFLEFRLMLCYIYDIFELTVMFDTMDKDGSLLLELQEFKEALPKLKEWGVDITDATTVFNEIDTNGSGVVTFDEFSCWAVTKKLQVCGDPDGEENGANEGN”, which “soluble on expression in E. coli” value is on record?
**A.** soluble

**Q.** With “MGSDKIHHHHHHMKEINLASVLVAKRREKGITQDELAAYIGVSKASVSKWETGQSYPDITFLPLLAAYFNISIDELMSYSPQMERSDIAKLYTRLAADFASRPFEDVIAECAALIKKYYSCFPLLVQLVKLYTNHFMLAGTQERQEALLNETVTLCERIQAESGDVQLAKEAVSYQALCSLALQRPQQVLDLLGEGIRPMLPEGMLIAQAYQVMGNIGKAKETLQTELYQYVMVAFQGLLNVLQMATDHFEKAEEAFLRASDLAQIFNMKQLNPNNVILLYALGARMYCANNSHAKAIELLGNYVDTCVGGFFPFELHGDAFFDLIDPWLKDCGAAAPRSEQVIKESMLRDVLMNPAFASLQDDPGYRRLVQKMERFIGR” as the sequence, how does the “soluble on expression in E. coli” value read?
**A.** not soluble

**Q.** For “MEDIENIEEDEYGFSRNYFLAKELGGASKRSAHKLSDIHIVDEQELRETASTIEMKHSKEISELMSDYKTMYSKWVFELRCGFGLLMYGFGSKKALVEDFASASLTDYSVVVINGYLPSVNLKQVLLALAELLSELLKCKRKSSGSLSKGQETFPSRSMDDILSFLHGPQSGDKDCFICVVVHNIDGPALRDPESQQTLARLSSCSHIRLVASIDHVNAPLLWDKKMVHKQFNWLWHHVPTFAPYNVEGVFFPLVLAQGSTAQTAKTAAIVLQSLTPNGQNVFKILAEYQLSHPDEDGMPTDDLYSASRERFFVSSQVTLNSHLTEFKDHELVKTKRNSDGQECLNIPLTSDAIRQLLLDLNQ”, which “soluble on expression in E. coli” value is on record?
**A.** not soluble

**Q.** Which “soluble on expression in E. coli” value does the source give for “MGSDKIHHHHHHMKKTYVLDTNVLLHDPMALFRFEDNDLVIPITVIEEIDRFKKDLNERGRNARQISRLLDGFRSKGHLIEGITLDHGGKLRVVMLEKTFLEQLPSGLIANANDNAILAVALALQQQNGQPTILVTKDTNLRIKADATGLCAEDYESDKIDFSELYSGTAEVYLAPDQLQVFRREGGLDLSGEFFPNQALTLVDETNLSHTLLGRYRASDRRVVPLIQPPKMGISRIHARNREQQFALDLLLDDNIQLVTLVGKAGTGKTLLAVAAGLHKVADERHFSRLLVSRPIFPMGRDLGFLPGDLQEKLAPWMQPIIDNLDFILGGANNNGDRPSNKQQNYQDLMGMNLLQIEPLTYIRGRSIPRQFMIVDEAQNLTPHEIKTILTRAGEGTKIVLTGDAYQIDNPYVDASSNGLTYVVEKFKNEAIAGHITLERGERSPLAELSANLL” here?
**A.** not soluble

**Q.** For “MRILEKNHGKSRVRFNCTHPIKPAAWVLAANVSLLGCAYAATDENNSQKKERENNPANTTITVTASPLRHAGVTEDSGSYNTSSMSTATGLNISARETPQSVSVLTKQRMRDQNLNSVESAVNNITGISVRQFDSDRFGFTSRGMAVNNVMRDGVATFYDTRFNYGDNTLDTDMFDRIEVVRGAAGLMAGPGNPSAVINLVRKRPTQDFRGSVSAGVGSWEKWRTALDISGPLNSEGSVRGRFVTAYEDKNSFVNRYDQSKNPFYGILEIDVTPNTLFTFGADTQRTLTRGGMFGGLPLFNSAGGRTNYAQSATTASDWASAETRTQTLFSSLQHNFDNGWNIKGTFTFDNDKLRQDVMWPTGYPDPQTNIGMRPGSLSLIDGARRQQNYDIQVNGQYSLFGRQHQLGLGWNRQRQNIDNDYYLATCNATRTCPDLGDFTQPGWQYPKPVWSDKRAYGSKGRSDQSSQYVVTQLSLIDPLTLILGGRLTTWETRGDNFGTPQNARYKNEFVPYSGLTYDINRDLSVYTSYTEIFNPENRRDRNNTLLAPVSGQNYEAGLKGVAFDNSLDYSLAVFEIRQNNMPVPDTTAPRLPDNSQPYFAVDGTKTRGFEAEVSGKMTEDWNISAGYTQYNVKLPSSNTQTPVTPVTPRKVLKLFTTYTLPGQLSDLTLGGGVNWQSQIARNLSSPIGIQQIGQGSFAIYSLMSRYQFTPQLSLTVNLDNLFNQHYYTQIGQYNQYLLGAPRNVDATVRYTF”, which “soluble on expression in E. coli” value is on record?
**A.** not soluble

**Q.** For “ERIQQFYFEVKNKDKFEALCRIIDVEEPETTIIFCRTKRGVDELVESMQFRGYNVEGMHGDMSQNQRINTLKKFKENNIDFLVATDVAARGIDVHNVSHVINYDIPQDMESYVHRIGRTGRANAEGIAYSLVTPREYVMIKQIEKFTKSKIRRKEIPTIDDIFETKYNTLTDKITKNIEKDDFKKYIPFVQKLDDEFNLVDVSAALVKMIFDKEMGFDYSDDDKLKSDESVR”, which “soluble on expression in E. coli” value is on record?
**A.** not soluble

**Q.** Which “soluble on expression in E. coli” value does the source give for “MSENSENAPEKVEFTPIGYVENDYFKPEYKEEVYEKVSKIVLREDLVDGLYRVEELEKLYILFYFSKSEGYKLIHRRRYDGEMSGVFASRSPYRPNGIGLTLVELLKVEGNVLYVKGLDAINGTPVLDIKPYMKDLEEKEKENTKLEHHHHHH” here?
**A.** soluble

**Q.** For “EREEEPAVQGNPDESLTVEGALEYVELAPQLNLPQQEEDADFHTVAGLIMEELQTIPDVGDFADFHGWRFEVVEKEGQRIERVKITKLP”, which “soluble on expression in E. coli” value is on record?
**A.** soluble

**Q.** For “MGSDKIHHHHHHMNQYERKMLDLLKRGKQELGYVGVKAEFEAEGTRTDELLRLIELARKAGLNVGLKIGGCEAMRDLMESKQYGVEYIIAPMIESGYALSKFIDAKNKVYSKDEQRDTRFLFNVETKSAFGCMDELVQIAAQPGGADGVVFGRVDFSLSMGLTRDDINDPKVTSYCLEVSEACKRSGLDFVVGGGVSMDALSIMKELNSSHLSRFETRKIIFDAAMMENADVHNGLLQAVHFELLWLLNKREYYSCILKEDAKRIEMLERRWHVLSADEKASTSTYVNQPNI”, which “soluble on expression in E. coli” value is on record?
**A.** not soluble

**Q.** For “MPNLLDDSFDPTFQSTSKKLVLPSIRKVQPEYDNLPEEQGVNDFSSDELMKLLSFMEGEVQAREDVIDHLKRERTKILLSEAKYGKLNMNDPFAALRRDSAITGEQIDEEKIVQMYESQVDQLDKMMAVQKQSQRNAAVLLVALEKKQYKLVKKLEADREAKIRYAKQGDDLVAHLEKERNQLQQQIEFHIEEKRKAEIAKDKMEMTLGNEKKRHESIVLYLIQERKQMLLKMHELRVKAEQIMLQNQNDPTKPGPSSALSERELIEELKKEVTFLRAERESLTKTQKMVKTENLSLRETVRGQEADLQMLRRNLTLTGAKMSIDKPGNVLPQLPPDTGSLIMANRGAKPAVNRQQPAPPPVARLPNSATFPTEKSRLPRAPPPAVTTPVPRMSIGSLPASSSNVPRTMSSPVKKTPVMGVSSTAVRRPQSAATTTMPTTSVITNTSAVMPLSPDLEQLEAAIQSMNVVTASPPAYSTAMAKRSSSLPREANNNPPGAPIRRSTMNGGMHTSTTGVVSTRIAGPSSNVASERKLSGTVKRNGILAKAFGSSK”, which “soluble on expression in E. coli” value is on record?
**A.** not soluble

**Q.** With “MDVSQWEQFAKHRSAVIRDYGMWIGLMDNNMEPIVDMPAPVSIDAPITRMTPSSCKAVFKTRVDGHIHPMVDYLIAENLAKVDEQGQLIAAAQDAVFLAIEVAQGIRNVYKGVFTVALGDQESPTLLEFNGVCEIQWTLGALPCPSAPYSWTGKWVDLNQDWAGKWSKTRTMADIKVAEVADGFTLSGAADTTIGKLISQSLQAINTMLKSKGRSLPIAVKPVTSNPTSPQLVIRPTDRFIWDEISDLALAAGVTVKCKTWWPSDPPVPGLDLKEPIVVIEITQEE” as the sequence, how does the “soluble on expression in E. coli” value read?
**A.** not soluble

**Q.** For “MSLTTDVKDELSRLVVKSVSARRAEVTSLLRFAGGLHIVGGRVVVEAELDLGSIARRLRKEIFELYGYTAVVHVLSASGIRKSTRYVLRVANDGEALARQTGLLDMRGRPVRGLPAQVVGGSIDDAEAAWRGAFLAHGSLTEPGRSSALEVSCPGPEAALALVGAARRLGVGAKAREVRGADRVVVRDGEAIGALLTRMGAQDTRLVWEERRLRREVRATANRLANFDDANLRRSARAAVAAAARVERALEILGDTVPEHLASAGKLRVEHRQASLEELGRLADPPMTKDAVAGRIRRLLSMADRKAKVDGIPDTESVVTPDLLEDAEGHHHHHH”, which “soluble on expression in E. coli” value is on record?
**A.** soluble

**Q.** With “MSLDLREYSTDHQKIKRIEFNCKSKNNTLDGLLTPEEIVAEAKRQGHSAVGISDYNSIFSFPEFYYAAKANNIKPIYGAGFAMLEDTNGAFLTEFQNQDLITGRYVVFDIETTSLSAYHGEIIEFAATIIENKAVVDKVDIFIKSKEKLSHFTTRLTSITNEMLDQKGIELKEALQKIYDVMNNNVAVAHNANFDYNFLIEKFDQNNMQAPKCTFIDSLVVSRILFEHRDKHNLNEFCRNMSVNYDTEKAHRALYDTEVLADAWIEATLKMKDIKQISNFQELSEYKSDALFSKYFSLYINTVVKNQAGLKELFQLVSIANTKTFYGAPKIFWSTLKSFKNILVGSNGVQGELFDIMMLSSRQRVEKYIQKLDYIEIPHPDLFDSYLDRNQLTKDQLLESLQILISLAKKHNKLIISTAEPRYRHKGDREIFKVLTSFPIRDKRHFLWNYKAVKAGNYSVPNFYFLTTDEMLDAFSFLKDKSLIEDIVVNNAHKLNNLIDENIEVIKTDLYPPSIKNSSELLKDLVYKNAKKKYGEVLPKLVQDRIDKELIPIINYKFDVVYWISHILVKKANDDGYVVGSRGSVGSSLIANLINITEVNPLEPHYICDNCKHFEVVNNDKITSGYDLDDKNCPNCDSIMDKDGHSIPFETFLGFKADKVPDIDLNFSGEYQIAIHNYTRELFGEDKTFRAGTVSSIQYRKAFGFIKKYIEDTNTFYSNGFIDYLAEKCIDVKVTTGKHAGGIVVLPENLDIEEFTPVNYASDGLEDKEWKTTHFKYDFLKENLLKLDLLGHSDPTQIRFLEQATGLLSKNIPKKDKNLLKLFSSTEPMEIDPNDINGETTGAIALPEFGTKFTREIIKTSKPHLFADLISISGLSHGQNVWKNNAEDLILNENKTLNEIVCCRDDIMNYLIKKGVDASLSFKVTESVRKGKGVDSEDIKILSTYNIPDWFFDSMQKIKYMFPRAHAVAYVIMAWRMGYYKLYYPLEFYASFFSVKCSKFDLSAMIDFSKDGYWKIKNKIEEIEKLIRTNNKKDNKKEEDILESLNVALEMYSRGFTIQNIDIEKSDAYNWIIDKDSKSLIPPFSALDGIEAGAIKIINARKERPFKTVLDFAKRSGVSSTIVEKLKELNVFKDLPESEQLSLFGEGHHHHHH” as the sequence, how does the “soluble on expression in E. coli” value read?
**A.** soluble

**Q.** Which “soluble on expression in E. coli” value does the source give for “MDALEIFKTLFSLVMRFSSYLPSNEEISDMKTTELYAFLYVALFGPKKMKEIAEFLSTTKSNVTNVVDSLEKRGLVVREMDPVDRRTYRVVLTEKGKEIFGEILSNFESLLKSVLEKFSEEDFKVVSEGFNRMVEALSREGR” here?
**A.** not soluble
